According to paper PMC7132122:

How the values were obtained:
[1] = molecular target: DHX15ΔN;NKRF G-patch V582G (Homo sapiens;Homo sapiens, UniProt O43143;O15226 113-795;541-603, |V582G); assay: fluorescence polarization
DHX15ΔN;NKRF G-patch wt = DHX15ΔN;NKRF G-patch wt (Homo sapiens;Homo sapiens, UniProt O43143;O15226 113-795;541-603, |); assay: fluorescence polarization
Chain of DHX15ΔN;NKRF G-patch wt (O43143 113-795, stated change not applied, chain 1 of 2): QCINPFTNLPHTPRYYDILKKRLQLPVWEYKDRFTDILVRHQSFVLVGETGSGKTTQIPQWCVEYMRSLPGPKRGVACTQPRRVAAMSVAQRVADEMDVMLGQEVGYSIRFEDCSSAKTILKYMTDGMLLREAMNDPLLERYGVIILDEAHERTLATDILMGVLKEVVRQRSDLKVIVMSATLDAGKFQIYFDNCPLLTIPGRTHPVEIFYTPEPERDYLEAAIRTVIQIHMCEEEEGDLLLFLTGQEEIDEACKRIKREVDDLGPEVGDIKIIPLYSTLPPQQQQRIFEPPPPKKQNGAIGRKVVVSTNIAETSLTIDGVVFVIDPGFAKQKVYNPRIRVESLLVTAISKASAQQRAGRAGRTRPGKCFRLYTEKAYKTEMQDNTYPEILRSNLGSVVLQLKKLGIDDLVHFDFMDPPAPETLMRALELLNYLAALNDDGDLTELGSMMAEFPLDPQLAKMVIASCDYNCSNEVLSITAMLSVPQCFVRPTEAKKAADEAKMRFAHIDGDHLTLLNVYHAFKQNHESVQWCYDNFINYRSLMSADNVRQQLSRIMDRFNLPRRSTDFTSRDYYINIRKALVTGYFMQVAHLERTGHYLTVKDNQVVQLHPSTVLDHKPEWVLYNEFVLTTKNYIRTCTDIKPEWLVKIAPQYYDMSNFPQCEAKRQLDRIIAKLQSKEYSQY
Chain of DHX15ΔN;NKRF G-patch wt (O15226 541-603, stated change not applied, chain 2 of 2): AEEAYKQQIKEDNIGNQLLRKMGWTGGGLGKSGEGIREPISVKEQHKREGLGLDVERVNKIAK

Chain of DHX15ΔN;NKRF G-patch V582G (O43143 113-795, chain 1 of 2): as the sequence (O43143 113-795, stated change not applied, chain 1 of 2) above
Chain of DHX15ΔN;NKRF G-patch V582G (O15226 541-603 V582G, chain 2 of 2): as the sequence (O15226 541-603, stated change not applied, chain 2 of 2) above, with V42G counted along it

UUUUUUUUUUUU (ssRNA) [FAM-U12 RNA]
binding signal [1]: 1.2 fold increase of affinity | binding signal (DHX15ΔN;NKRF G-patch wt): ~1 fold of Kd without nucleotide
